“And” between values parts separate entries of the source, which are not always exact repeats. Identical values can stand only once.
What was measured:
[1] = biological target: Cetuximab (Erbitux, 5 mg/mL); assay: SEC; SE/UHPLC-UV as a10; sample exposed to daylight for 24 h
[2] = biological target: Cetuximab (Erbitux, 5 mg/mL); assay: SEC; SE/UHPLC-UV as a10; sample exposed to accelerated light (250 W/m^2) for 24 h

What does the source list for Cetuximab (Erbitux, 5 mg/mL) (antibody)?
stoichiometry N [1]: 3; stoichiometry N [2]: 3 and 8 and 5
